Reference: article PMC5473857

Biological target: FtsZ-F268C labeled with fluorescein 5-maleimide (donor) or tetramethylrhodamine 5-maleimide (acceptor) (E. coli) (UniProt P0A9A6)

B1: FtsA-R286W (FtsA*) from E. coli (natural protein)
chain: MIKATDRKLVVGLEIGTAKVAALVGEVLPDGMVNIIGVGSCPSRGMDKGGVNDLESVVKCVQRAIDQAELMADCQISSVYLALSGKHISCQNEIGMVPISEEEVTQEDVENVVHTAKSVRVRDEHRVLHVIPQEYAIDYQEGIKNPVGLSGVRMQAKVHLITCHNDMAKNIVKAVERCGLKVDQLIFAGLASSYSVLTEDERELGVCVVDIGGGTMDIAVYTGGALRHTKVIPYAGNVVTSDIAYAFGTPPSDAEAIKVRHGCALGSIVGKDESVEVPSVGGRPPWSLQRQTLAEVIEPRYTELLNLVNEEILQLQEKLRQQGVKHHLAAGIVLTGGAAQIEGLAACAQRVFHTQVRIGAPLNITGLTDYAQEPYYSTAVGLLHYGKESHLNGEAEVEKRVTASVGSWIKRLNSWLRKEF
With B1 the FRET assay of subunit exchange of FtsZ protofilaments at steady state with FtsA*, pH 6.5: reaction time τ (13.1 s for FtsZ alone) was 38 s.
